Reference: patent publication US20140213513A1 (Sanofi, priority 2012, published 2014)
*1 amine or outer side, *2 acyl side, *3 side chain or, on linkers, in order; H or OH if unused. Where no end group is shown, it is not given here. Side-chain parts run from the residue outwards. [ ]: non-standard residue; d: D form. The star is where a group is joined. γGlu = O=C(O)[C@H](CCC(=O)[*:2])N[*:1]; Stearoyl = CCCCCCCCCCCCCCCCCC(=O)*; Palmitoyl = CCCCCCCCCCCCCCCC(=O)*; Aib = CC(C)(N)C(=O)O

B1: exendin-4 peptide analogue SEQ ID NO: 65 (peptide)
peptide: YAEGTFTSDLSKQKEEEAVRLFIEWLKAGGPSSGAPPPS
modifications: Aib at 2; Lys14 side-chain NH2 acylated with (S)-4-Carboxy-4-octadecanoylamino-butyryl- (yE-x70); C-terminal amide
B2: exendin-4 peptide analogue SEQ ID NO: 33 (peptide)
peptide: Y[Aib]QGTFTSDLSIQK([γGlu-Palmitoyl])EKRAALEFIEWLKNTGPSSGAPPPS-NH2
modifications: N-terminus assumed
SMILES: CCCCCCCCCCCCCCCC(=O)N[C@@H](CCC(=O)NCCCC[C@H](NC(=O)[C@H](CCC(N)=O)NC(=O)[C@@H](NC(=O)[C@H](CO)NC(=O)[C@H](CC(C)C)NC(=O)[C@H](CC(=O)O)NC(=O)[C@H](CO)NC(=O)[C@@H](NC(=O)[C@H](Cc1ccccc1)NC(=O)[C@@H](NC(=O)CNC(=O)[C@H](CCC(N)=O)NC(=O)C(C)(C)NC(=O)[C@@H](N)Cc1ccc(O)cc1)[C@@H](C)O)[C@@H](C)O)[C@@H](C)CC)C(=O)N[C@@H](CCC(=O)O)C(=O)N[C@@H](CCCCN)C(=O)N[C@@H](CCCNC(=N)N)C(=O)N[C@@H](C)C(=O)N[C@@H](C)C(=O)N[C@@H](CC(C)C)C(=O)N[C@@H](CCC(=O)O)C(=O)N[C@@H](Cc1ccccc1)C(=O)N[C@H](C(=O)N[C@@H](CCC(=O)O)C(=O)N[C@@H](Cc1c[nH]c2ccccc12)C(=O)N[C@@H](CC(C)C)C(=O)N[C@@H](CCCCN)C(=O)N[C@@H](CC(N)=O)C(=O)N[C@H](C(=O)NCC(=O)N1CCC[C@H]1C(=O)N[C@@H](CO)C(=O)N[C@@H](CO)C(=O)NCC(=O)N[C@@H](C)C(=O)N1CCC[C@H]1C(=O)N1CCC[C@H]1C(=O)N1CCC[C@H]1C(=O)N[C@@H](CO)C(N)=O)[C@@H](C)O)[C@@H](C)CC)C(=O)O
B3: exendin-4 peptide analogue SEQ ID NO: 8 (peptide)
peptide: Y[Aib]QGTFTSDLSIQK([γGlu-Palmitoyl])EKLAA[Aib]EFIEWLKNTGPSSGAPPPS-NH2
modifications: N-terminus assumed
SMILES: CCCCCCCCCCCCCCCC(=O)N[C@@H](CCC(=O)NCCCC[C@H](NC(=O)[C@H](CCC(N)=O)NC(=O)[C@@H](NC(=O)[C@H](CO)NC(=O)[C@H](CC(C)C)NC(=O)[C@H](CC(=O)O)NC(=O)[C@H](CO)NC(=O)[C@@H](NC(=O)[C@H](Cc1ccccc1)NC(=O)[C@@H](NC(=O)CNC(=O)[C@H](CCC(N)=O)NC(=O)C(C)(C)NC(=O)[C@@H](N)Cc1ccc(O)cc1)[C@@H](C)O)[C@@H](C)O)[C@@H](C)CC)C(=O)N[C@@H](CCC(=O)O)C(=O)N[C@@H](CCCCN)C(=O)N[C@@H](CC(C)C)C(=O)N[C@@H](C)C(=O)N[C@@H](C)C(=O)NC(C)(C)C(=O)N[C@@H](CCC(=O)O)C(=O)N[C@@H](Cc1ccccc1)C(=O)N[C@H](C(=O)N[C@@H](CCC(=O)O)C(=O)N[C@@H](Cc1c[nH]c2ccccc12)C(=O)N[C@@H](CC(C)C)C(=O)N[C@@H](CCCCN)C(=O)N[C@@H](CC(N)=O)C(=O)N[C@H](C(=O)NCC(=O)N1CCC[C@H]1C(=O)N[C@@H](CO)C(=O)N[C@@H](CO)C(=O)NCC(=O)N[C@@H](C)C(=O)N1CCC[C@H]1C(=O)N1CCC[C@H]1C(=O)N1CCC[C@H]1C(=O)N[C@@H](CO)C(N)=O)[C@@H](C)O)[C@@H](C)CC)C(=O)O
B4: exendin-4 peptide analogue SEQ ID NO: 38 (peptide)
peptide: Y[Aib]EGTFTSDLSIQK([γGlu-Palmitoyl])EEQAAHEFIEWLKR[Aib]GPSSGAPPPS-NH2
modifications: N-terminus assumed
SMILES: CCCCCCCCCCCCCCCC(=O)N[C@@H](CCC(=O)NCCCC[C@H](NC(=O)[C@H](CCC(N)=O)NC(=O)[C@@H](NC(=O)[C@H](CO)NC(=O)[C@H](CC(C)C)NC(=O)[C@H](CC(=O)O)NC(=O)[C@H](CO)NC(=O)[C@@H](NC(=O)[C@H](Cc1ccccc1)NC(=O)[C@@H](NC(=O)CNC(=O)[C@H](CCC(=O)O)NC(=O)C(C)(C)NC(=O)[C@@H](N)Cc1ccc(O)cc1)[C@@H](C)O)[C@@H](C)O)[C@@H](C)CC)C(=O)N[C@@H](CCC(=O)O)C(=O)N[C@@H](CCC(=O)O)C(=O)N[C@@H](CCC(N)=O)C(=O)N[C@@H](C)C(=O)N[C@@H](C)C(=O)N[C@@H](Cc1c[nH]cn1)C(=O)N[C@@H](CCC(=O)O)C(=O)N[C@@H](Cc1ccccc1)C(=O)N[C@H](C(=O)N[C@@H](CCC(=O)O)C(=O)N[C@@H](Cc1c[nH]c2ccccc12)C(=O)N[C@@H](CC(C)C)C(=O)N[C@@H](CCCCN)C(=O)N[C@@H](CCCNC(=N)N)C(=O)NC(C)(C)C(=O)NCC(=O)N1CCC[C@H]1C(=O)N[C@@H](CO)C(=O)N[C@@H](CO)C(=O)NCC(=O)N[C@@H](C)C(=O)N1CCC[C@H]1C(=O)N1CCC[C@H]1C(=O)N1CCC[C@H]1C(=O)N[C@@H](CO)C(N)=O)[C@@H](C)CC)C(=O)O
B5: exendin-4 peptide analogue SEQ ID NO: 41 (peptide)
peptide: Y[Aib]QGTFTSDLSKQK([γGlu-Stearoyl])DSKAAQDFIEWLKAGGPSSGAPPPS-NH2
modifications: N-terminus assumed
SMILES: CCCCCCCCCCCCCCCCCC(=O)N[C@@H](CCC(=O)NCCCC[C@H](NC(=O)[C@H](CCC(N)=O)NC(=O)[C@H](CCCCN)NC(=O)[C@H](CO)NC(=O)[C@H](CC(C)C)NC(=O)[C@H](CC(=O)O)NC(=O)[C@H](CO)NC(=O)[C@@H](NC(=O)[C@H](Cc1ccccc1)NC(=O)[C@@H](NC(=O)CNC(=O)[C@H](CCC(N)=O)NC(=O)C(C)(C)NC(=O)[C@@H](N)Cc1ccc(O)cc1)[C@@H](C)O)[C@@H](C)O)C(=O)N[C@@H](CC(=O)O)C(=O)N[C@@H](CO)C(=O)N[C@@H](CCCCN)C(=O)N[C@@H](C)C(=O)N[C@@H](C)C(=O)N[C@@H](CCC(N)=O)C(=O)N[C@@H](CC(=O)O)C(=O)N[C@@H](Cc1ccccc1)C(=O)N[C@H](C(=O)N[C@@H](CCC(=O)O)C(=O)N[C@@H](Cc1c[nH]c2ccccc12)C(=O)N[C@@H](CC(C)C)C(=O)N[C@@H](CCCCN)C(=O)N[C@@H](C)C(=O)NCC(=O)NCC(=O)N1CCC[C@H]1C(=O)N[C@@H](CO)C(=O)N[C@@H](CO)C(=O)NCC(=O)N[C@@H](C)C(=O)N1CCC[C@H]1C(=O)N1CCC[C@H]1C(=O)N1CCC[C@H]1C(=O)N[C@@H](CO)C(N)=O)[C@@H](C)CC)C(=O)O
B6: exendin-4 peptide analogue SEQ ID NO: 39 (peptide)
peptide: Y[Aib]QGTFTSDLSKQK([γGlu-Palmitoyl])ESKAAQDFIEWLKAGGPSSGAPPPS-NH2
modifications: N-terminus assumed
SMILES: CCCCCCCCCCCCCCCC(=O)N[C@@H](CCC(=O)NCCCC[C@H](NC(=O)[C@H](CCC(N)=O)NC(=O)[C@H](CCCCN)NC(=O)[C@H](CO)NC(=O)[C@H](CC(C)C)NC(=O)[C@H](CC(=O)O)NC(=O)[C@H](CO)NC(=O)[C@@H](NC(=O)[C@H](Cc1ccccc1)NC(=O)[C@@H](NC(=O)CNC(=O)[C@H](CCC(N)=O)NC(=O)C(C)(C)NC(=O)[C@@H](N)Cc1ccc(O)cc1)[C@@H](C)O)[C@@H](C)O)C(=O)N[C@@H](CCC(=O)O)C(=O)N[C@@H](CO)C(=O)N[C@@H](CCCCN)C(=O)N[C@@H](C)C(=O)N[C@@H](C)C(=O)N[C@@H](CCC(N)=O)C(=O)N[C@@H](CC(=O)O)C(=O)N[C@@H](Cc1ccccc1)C(=O)N[C@H](C(=O)N[C@@H](CCC(=O)O)C(=O)N[C@@H](Cc1c[nH]c2ccccc12)C(=O)N[C@@H](CC(C)C)C(=O)N[C@@H](CCCCN)C(=O)N[C@@H](C)C(=O)NCC(=O)NCC(=O)N1CCC[C@H]1C(=O)N[C@@H](CO)C(=O)N[C@@H](CO)C(=O)NCC(=O)N[C@@H](C)C(=O)N1CCC[C@H]1C(=O)N1CCC[C@H]1C(=O)N1CCC[C@H]1C(=O)N[C@@H](CO)C(N)=O)[C@@H](C)CC)C(=O)O
B7: exendin-4 peptide analogue SEQ ID NO: 40 (peptide)
peptide: Y[Aib]QGTFTSDLSKQK([γGlu-Palmitoyl])ESKAAQEFIEWLKAGGPSSGAPPPS-NH2
modifications: N-terminus assumed
SMILES: CCCCCCCCCCCCCCCC(=O)N[C@@H](CCC(=O)NCCCC[C@H](NC(=O)[C@H](CCC(N)=O)NC(=O)[C@H](CCCCN)NC(=O)[C@H](CO)NC(=O)[C@H](CC(C)C)NC(=O)[C@H](CC(=O)O)NC(=O)[C@H](CO)NC(=O)[C@@H](NC(=O)[C@H](Cc1ccccc1)NC(=O)[C@@H](NC(=O)CNC(=O)[C@H](CCC(N)=O)NC(=O)C(C)(C)NC(=O)[C@@H](N)Cc1ccc(O)cc1)[C@@H](C)O)[C@@H](C)O)C(=O)N[C@@H](CCC(=O)O)C(=O)N[C@@H](CO)C(=O)N[C@@H](CCCCN)C(=O)N[C@@H](C)C(=O)N[C@@H](C)C(=O)N[C@@H](CCC(N)=O)C(=O)N[C@@H](CCC(=O)O)C(=O)N[C@@H](Cc1ccccc1)C(=O)N[C@H](C(=O)N[C@@H](CCC(=O)O)C(=O)N[C@@H](Cc1c[nH]c2ccccc12)C(=O)N[C@@H](CC(C)C)C(=O)N[C@@H](CCCCN)C(=O)N[C@@H](C)C(=O)NCC(=O)NCC(=O)N1CCC[C@H]1C(=O)N[C@@H](CO)C(=O)N[C@@H](CO)C(=O)NCC(=O)N[C@@H](C)C(=O)N1CCC[C@H]1C(=O)N1CCC[C@H]1C(=O)N1CCC[C@H]1C(=O)N[C@@H](CO)C(N)=O)[C@@H](C)CC)C(=O)O

Columns and labels:
Assay in all cases: cell-based or functional assay
human GLP-1 receptor = human GLP-1 receptor (human, UniProt P43220 24-463)
human GIP receptor = biological target: T1, human GIP receptor (human, UniProt P48546 22-466)
T1 sequence (looked up): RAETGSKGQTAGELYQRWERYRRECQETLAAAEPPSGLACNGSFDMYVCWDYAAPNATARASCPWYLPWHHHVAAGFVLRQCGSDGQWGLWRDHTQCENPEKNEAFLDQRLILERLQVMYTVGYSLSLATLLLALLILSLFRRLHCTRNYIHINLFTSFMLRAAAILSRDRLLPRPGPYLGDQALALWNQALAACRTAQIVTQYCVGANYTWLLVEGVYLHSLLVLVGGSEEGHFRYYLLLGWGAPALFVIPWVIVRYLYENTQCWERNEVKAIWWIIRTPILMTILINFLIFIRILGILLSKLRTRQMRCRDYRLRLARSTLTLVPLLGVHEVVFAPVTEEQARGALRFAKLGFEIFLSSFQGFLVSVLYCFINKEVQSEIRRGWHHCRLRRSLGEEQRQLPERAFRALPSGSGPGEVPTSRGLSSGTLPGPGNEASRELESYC

human glucagon receptor = human glucagon receptor (human, UniProt P47871 26-477)
Chain of human glucagon receptor (P47871 26-477): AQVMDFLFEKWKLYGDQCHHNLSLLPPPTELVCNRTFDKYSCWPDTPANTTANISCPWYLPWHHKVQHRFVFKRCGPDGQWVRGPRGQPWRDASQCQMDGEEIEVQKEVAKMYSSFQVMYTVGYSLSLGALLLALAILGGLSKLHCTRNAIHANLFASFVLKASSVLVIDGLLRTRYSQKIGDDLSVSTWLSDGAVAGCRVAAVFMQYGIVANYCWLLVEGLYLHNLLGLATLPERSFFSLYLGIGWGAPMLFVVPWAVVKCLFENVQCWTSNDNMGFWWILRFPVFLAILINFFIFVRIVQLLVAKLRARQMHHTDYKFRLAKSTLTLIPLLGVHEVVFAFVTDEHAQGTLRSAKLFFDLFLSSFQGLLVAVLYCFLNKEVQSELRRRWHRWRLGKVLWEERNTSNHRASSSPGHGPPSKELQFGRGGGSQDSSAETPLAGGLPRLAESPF

Molecule | EC50 hGLP-1 R (human GLP-1 receptor) [pM] | EC50 hGIP R (human GIP receptor) [pM] | EC50 hGLUC R (human glucagon receptor) [pM]
Tyr(1)Ile(12)-GLP1 (peptide) | 5 | 3660 | –
B1 | – | 12 | 26800
B2 | – | 88.2 | 109
B3 | 8.7 | 26 | 803
B4 | 9 | 7.4 | 22500
B5 | 24.1 | 186 | 26.5
B6 | 4.5 | 38.5 | 19.2
B7 | 5.5 | 53.6 | 22.6
